{"source": "paper PMC5636791", "about": "“Non-canonical reader modules of BAZ1A promote recovery from DNA damage”", "molecules": {"B1": {"name": "20 bp HDX duplex (dsDNA)", "DNA 1": "ACTGACTCTGGACTACTGAG", "DNA 2": "CTCAGTAGTCCAGAGTCAGT"}, "B2": {"name": "Widom-601 145 bp duplex, unlabeled (dsDNA)", "DNA 1": "ATCAGAATCCCGGTGCCGAGGCCGCTCAATTGGTCGTAGACAGCTCTAGCACCGCTTAAACGCACGTACGCGCTGTCCCCCGCGTTTTAACCGCCAAGGGGATTACTCCCTAGTCTCCAGGCACGTGTCAGATATATACATCGAT", "DNA 2": "ATCGATGTATATATCTGACACGTGCCTGGAGACTAGGGAGTAATCCCCTTGGCGGTTAAAACGCGGGGGACAGCGCGTACGTGCGTTTAAGCGGTGCTAGAGCTGTCTACGACCAATTGAGCGGCCTCGGCACCGGGATTCTGAT"}, "B3": {"name": "Widom-601 145 bp duplex, biotinylated (dsDNA)", "DNA 1": "ATCAGAATCCCGGTGCCGAGGCCGCTCAATTGGTCGTAGACAGCTCTAGCACCGCTTAAACGCACGTACGCGCTGTCCCCCGCGTTTTAACCGCCAAGGGGATTACTCCCTAGTCTCCAGGCACGTGTCAGATATATACATCGAT", "DNA 2": "ATCGATGTATATATCTGACACGTGCCTGGAGACTAGGGAGTAATCCCCTTGGCGGTTAAAACGCGGGGGACAGCGCGTACGTGCGTTTAAGCGGTGCTAGAGCTGTCTACGACCAATTGAGCGGCCTCGGCACCGGGATTCTGAT"}, "B4": {"name": "scrambled Widom-601 145 bp duplex (dsDNA)", "DNA 1": "CTTGCATCGATCCGATTGAACCATCGCTCGGTGACAGCTACGTGACTTAGTGTGCCCCATCGATCCAGTTCGATCACAGGCCACCTGAGTCGAGAGTATCGACACCCAGTGAACGATCGATCCGACTCGATCGCCTCACTGCTAG", "DNA 2": "CTAGCAGTGAGGCGATCGAGTCGGATCGATCGTTCACTGGGTGTCGATACTCTCGACTCAGGTGGCCTGTGATCGAACTGGATCGATGGGGCACACTAAGTCACGTAGCTGTCACCGAGCGATGGTTCAATCGGATCGATGCAAG"}}, "key": {"BAZ1A-PHD [1]": {"molecular_target": "T1, BAZ1A-PHD (human, UniProt Q9NRL2 1137-1202)", "T1 sequence": "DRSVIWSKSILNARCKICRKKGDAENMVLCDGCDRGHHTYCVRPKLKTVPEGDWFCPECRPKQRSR", "assay": "BLI", "conditions": "n=6; value from figure text layer, assigned to the nucleosome panel; BLI: 50 mM Tris pH 7.5, 150 mM NaCl, 1 mM TCEP, 0.5% BSA, 0.01% Tween-20, 23 C; FP: 20 mM Tris pH 7.5, 150 mM NaCl, 1% glycerol, 0.5 mg/mL BSA, 0.05% Triton …"}, "BAZ1A-PHD [2]": {"molecular_target": "T1, BAZ1A-PHD", "assay": "HDX-MS; 30 uM protein, 100 uM DNA; C-terminal region protected, incl. K1181 and K1183; BLI: 50 mM Tris pH 7.5, 150 mM NaCl, 1 mM TCEP, 0.5% BSA, 0.01% Tween-20, 23 C; FP: 20 mM Tris pH 7.5, 150 mM NaCl, 1% glycerol, 0.5 mg/mL BSA, 0.05% Triton X-100, RT, 50 nM probe; HDX: PBS pH 7.2, 5 C", "conditions": "protein: recombinant; tags: His6-FLAG N-terminal, removed (TEV/thrombin) for BLI; HDX construct tag-free with extra non-native residues; blunt"}, "BAZ1A-PHD [3]": {"molecular_target": "T1, BAZ1A-PHD", "assay": "competition; fluorescence polarization, 5.3 uM protein, 50 nM labeled probe; IC50 not in text; BLI: 50 mM Tris pH 7.5, 150 mM NaCl, 1 mM TCEP, 0.5% BSA, 0.01% Tween-20, 23 C; FP: 20 mM Tris pH 7.5, 150 mM NaCl, 1% glycerol, 0.5 mg/mL BSA, 0.05% Triton X-100, RT, 50 nM probe; HDX: PBS pH 7.2, 5 C", "conditions": "protein: recombinant; tags: His6-FLAG N-terminal, removed (TEV/thrombin) for BLI; HDX construct tag-free with extra non-native residues; blunt"}, "BAZ1A-PHD [4]": {"molecular_target": "T1, BAZ1A-PHD", "assay": "BLI; identical results to scrambled sequence; BLI: 50 mM Tris pH 7.5, 150 mM NaCl, 1 mM TCEP, 0.5% BSA, 0.01% Tween-20, 23 C; FP: 20 mM Tris pH 7.5, 150 mM NaCl, 1% glycerol, 0.5 mg/mL BSA, 0.05% Triton X-100, RT, 50 nM probe; HDX: PBS pH 7.2, 5 C", "conditions": "protein: recombinant; tags: His6-FLAG N-terminal, removed (TEV/thrombin) for BLI; HDX construct tag-free with extra non-native residues; label: 5' biotin; blunt"}, "[5]": {"molecular_target": "T2, BAZ1A-PHD K1181A/K1183Y (KAKY) (human, UniProt Q9NRL2 1137-1202, K1181A;K1183Y)", "T2 sequence": "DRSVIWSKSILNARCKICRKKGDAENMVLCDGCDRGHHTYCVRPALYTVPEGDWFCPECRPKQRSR", "assay": "BLI; BLI: 50 mM Tris pH 7.5, 150 mM NaCl, 1 mM TCEP, 0.5% BSA, 0.01% Tween-20, 23 C; FP: 20 mM Tris pH 7.5, 150 mM NaCl, 1% glycerol, 0.5 mg/mL BSA, 0.05% Triton X-100, RT, 50 nM probe; HDX: PBS pH 7.2, 5 C", "conditions": "protein: recombinant; tags: His6-FLAG N-terminal, removed for BLI; label: 5' biotin; blunt"}, "BAZ1B-PHD": {"molecular_target": "T3, BAZ1B-PHD (UniProt Q9UIG0 1172-1237)", "T3 sequence": "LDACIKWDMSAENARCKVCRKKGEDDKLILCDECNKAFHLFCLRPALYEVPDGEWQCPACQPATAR", "assay": "BLI; BLI: 50 mM Tris pH 7.5, 150 mM NaCl, 1 mM TCEP, 0.5% BSA, 0.01% Tween-20, 23 C; FP: 20 mM Tris pH 7.5, 150 mM NaCl, 1% glycerol, 0.5 mg/mL BSA, 0.05% Triton X-100, RT, 50 nM probe; HDX: PBS pH 7.2, 5 C", "conditions": "protein: recombinant; tags: His6-FLAG N-terminal, removed for BLI; label: 5' biotin; blunt"}, "BAZ1B-PHD A1227K/Y1229K": {"molecular_target": "T4, BAZ1B-PHD A1227K/Y1229K (UniProt Q9UIG0 1172-1237, A1217K;Y1219K)", "T4 sequence": "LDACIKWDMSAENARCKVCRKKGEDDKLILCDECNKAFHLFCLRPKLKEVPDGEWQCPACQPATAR", "assay": "BLI; BLI: 50 mM Tris pH 7.5, 150 mM NaCl, 1 mM TCEP, 0.5% BSA, 0.01% Tween-20, 23 C; FP: 20 mM Tris pH 7.5, 150 mM NaCl, 1% glycerol, 0.5 mg/mL BSA, 0.05% Triton X-100, RT, 50 nM probe; HDX: PBS pH 7.2, 5 C", "conditions": "protein: recombinant; tags: His6-FLAG N-terminal, removed for BLI; label: 5' biotin; blunt"}, "dAcf1-PHD(1)": {"molecular_target": "T5, dAcf1-PHD(1) (Drosophila, UniProt Q9V9T4 1051-1115)", "T5 sequence": "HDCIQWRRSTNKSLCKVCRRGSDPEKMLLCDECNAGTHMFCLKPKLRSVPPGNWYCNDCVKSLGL", "assay": "BLI; BLI: 50 mM Tris pH 7.5, 150 mM NaCl, 1 mM TCEP, 0.5% BSA, 0.01% Tween-20, 23 C; FP: 20 mM Tris pH 7.5, 150 mM NaCl, 1% glycerol, 0.5 mg/mL BSA, 0.05% Triton X-100, RT, 50 nM probe; HDX: PBS pH 7.2, 5 C", "conditions": "protein: recombinant; tags: His6-FLAG N-terminal, removed for BLI; label: 5' biotin; blunt"}, "BAZ1A-PHD [6]": {"molecular_target": "T1, BAZ1A-PHD", "assay": "BLI; n=10; BLI: 50 mM Tris pH 7.5, 150 mM NaCl, 1 mM TCEP, 0.5% BSA, 0.01% Tween-20, 23 C; FP: 20 mM Tris pH 7.5, 150 mM NaCl, 1% glycerol, 0.5 mg/mL BSA, 0.05% Triton X-100, RT, 50 nM probe; HDX: PBS pH 7.2, 5 C", "conditions": "protein: recombinant; tags: His6-FLAG N-terminal, removed (TEV/thrombin) for BLI; HDX construct tag-free with extra non-native residues; label: 5' biotin; blunt"}}, "data": [{"molecule": "human biotinylated mononucleosome (EpiCypher)", "values": [{"measurement": "Kd", "setting": "BAZ1A-PHD [1]", "result": 48, "unit": "µM"}]}, {"molecule": "B1", "values": [{"measurement": "binding result", "setting": "BAZ1A-PHD [2]", "result": "binds"}]}, {"molecule": "B2", "values": [{"measurement": "binding result", "setting": "BAZ1A-PHD [3]", "result": "binds"}]}, {"molecule": "B3", "values": [{"measurement": "binding result", "setting": "BAZ1A-PHD [4]", "result": "binds"}]}, {"molecule": "B4", "values": [{"measurement": "binding result", "setting": "[5]", "result": "no binding"}, {"measurement": "binding result", "setting": "BAZ1B-PHD", "result": "no binding"}, {"measurement": "binding result", "setting": "BAZ1B-PHD A1227K/Y1229K", "result": "no binding"}, {"measurement": "binding result", "setting": "dAcf1-PHD(1)", "result": "no binding"}, {"measurement": "Kd", "setting": "BAZ1A-PHD [6]", "result": "51 ± 9", "unit": "µM"}]}]}
